Assay results as given in patent US20210206847A1.

Molecular target: biotin-labeled soluble FcRn protein (UniProt P55899)
Test: SPR; pH 6.0

| Kd | Substance |
| --- | --- |
| 119 nM | 1-B10-9 (from UniProt P0DOX5 233-449) |
| 106 nM | novel IgG1 Fc monomer (sFc) (from UniProt P0DOX5 233-449) |
